Reference: paper PMC4932183

Tests used:
[1] = biological target: T1, pro-domain of activin A, N-terminal His6-tagged, released from engineered pro-activin A by HRV 3C protease (human); experiment: BLI; His6-tagged pro-activin A complex immobilised through the pro-domain on anti-penta-HIS biosensors, dipped into blank buffer for 600 s; dissociation of the mature domain; 30 °C
T1 sequence (P08476 whole entry, looked up): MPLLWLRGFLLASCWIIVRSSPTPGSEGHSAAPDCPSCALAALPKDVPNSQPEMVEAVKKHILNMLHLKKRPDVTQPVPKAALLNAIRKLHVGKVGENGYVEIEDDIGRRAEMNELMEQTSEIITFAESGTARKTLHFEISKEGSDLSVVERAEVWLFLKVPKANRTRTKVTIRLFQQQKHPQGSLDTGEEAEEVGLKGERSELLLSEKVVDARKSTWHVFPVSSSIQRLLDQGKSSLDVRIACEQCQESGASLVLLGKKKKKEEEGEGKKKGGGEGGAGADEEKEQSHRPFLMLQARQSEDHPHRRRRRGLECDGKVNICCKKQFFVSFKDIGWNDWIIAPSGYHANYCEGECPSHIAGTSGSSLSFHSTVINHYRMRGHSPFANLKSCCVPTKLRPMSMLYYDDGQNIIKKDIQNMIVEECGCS

[2] = biological target: T1, pro-domain of activin A, N-terminal His6-tagged, released from engineered pro-activin A by HRV 3C protease (human); experiment: BLI; reverse phase purified His6-tagged pro-domain immobilised at 25 μg/ml on anti-penta-HIS biosensors; mature activin A in solution; 300 s association, 300 s dissociation; Octet RED96, 30 °C
[3] = biological target: T1, pro-domain of activin A, N-terminal His6-tagged, released from engineered pro-activin A by HRV 3C protease (human); experiment: BLI; His6-tagged pro-activin A complex immobilised through the pro-domain on anti-penta-HIS biosensors, dipped into buffer containing 100 nM FST-288 for 600 s; dissociation of the mature domain; 30 °C
[4] = biological target: T1, pro-domain of activin A, N-terminal His6-tagged, released from engineered pro-activin A by HRV 3C protease (human); experiment: BLI; pro-activin A complex immobilised at 50 μg/ml on anti-penta-HIS biosensors, mature domain removed with 16 μM FST-288, then mature activin A in solution; 600 s association, 600 s dissociation; 30 °C

B1: mature activin A (disulfide-linked dimer of the mature domain of inhibin βA) (ligand)
chain: GLECDGKVNICCKKQFFVSFKDIGWNDWIIAPSGYHANYCEGECPSHIAGTSGSSLSFHSTVINHYRMRGHSPFANLKSCCVPTKLRPMSMLYYDDGQNIIKKDIQNMIVEECGCS
koff [1]: 0.00299 s⁻¹
Kd [2]: 5 nM
dissociation rate with 100 nM FST-288 [3]: 0.00445 s⁻¹
Kd [4]: 2.3 nM
